According to the supplement of paper PMC11780869:

Tested on: Bacillus subtilis
Experiment: cleaved RNA product abundance (RNA/gDNA barcode ratio) relative to median wild-type variant (ratio to wild type); higher = more accumulation of the downstream cleavage product
Settings: cleavage site: cggR-gapA (positions -7 to +36 mutated)
Description: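 MPRA in B. subtilis. Mutagenized RNase Y cleavage-site regions (9% mutation rate) were inserted into a barcoded reporter mRNA (truncated aprE or tetM). Cells were grown in LB at 37°C to OD600 0.3. The cleaved RNA isoform was gel-purified and its barcodes counted; the RNA:gDNA barcode ratio was normalised to the median wild-type variant, and the median over barcodes is reported per variant. The printed sequence is the variable window only; the reporter flanks are not printed.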

[1] = experiment (reporter, strain, medium): exp 2b: truncated aprE reporter, strain BJT200
[2] = experiment (reporter, strain, medium): exp 4a: truncated aprE reporter, strain BJT201 with 2% xylose (RNase J1 expressed)
[3] = experiment (reporter, strain, medium): exp 6: tetM reporter, strain 168

Sequence	cleaved RNA product abundance [1]	cleaved RNA product abundance [2]	cleaved RNA product abundance [3]
ACAGACGAAGGAGCCGCAAAGAACTTATTAAAGGATGAATAATCCCTCAATATAAATATCTCTCACTTATTTAAA	0.166		
ACAGACGAAGGAGCCGCAAAGAACTTATTAACGGATGAATAATCCCTCAATATAAATATCTCTCACTTATTTAAA		0.112	
ACAGACGAAGGAGCCGCAAAGAACTTATTAAGAGATGAATAATCCCTCAATATAAATATCTCTCACTTATTTAAA	0.092	0.147	
ACAGACGAAGGAGCCGCAAAGAACTTATTAAGCGATGAATAATCCCTCAATATAAATATCTCTCACTTATTTAAA	0.0844	0.157	
ACAGACGAAGGAGCCGCAAAGAACTTATTAAGGAATGAATAATCCCTCAATATAAATATCTCTCACTTATTTAAA		0.117	
ACAGACGAAGGAGCCGCAAAGAACTTATTAAGGCATGAATAATCCCTCAATATAAATATCTCTCACTTATTTAAA	0.114	0.099	
ACAGACGAAGGAGCCGCAAAGAACTTATTAAGGGAAGAATAATCCCTCAATATAAATATCTCTCACTTATTTAAA		0.235	
ACAGACGAAGGAGCCGCAAAGAACTTATTAAGGGACGAATAATCCCTCAATATAAATATCTCTCACTTATTTAAA	0.375	0.389	
ACAGACGAAGGAGCCGCAAAGAACTTATTAAGGGAGGAATAATCCCTCAATATAAATATCTCTCACTTATTTAAA		0.315	
ACAGACGAAGGAGCCGCAAAGAACTTATTAAGGGATAAATAATCCCTCAATATAAATATCTCTCACTTATTTAAA	0.556	0.477	
ACAGACGAAGGAGCCGCAAAGAACTTATTAAGGGATCAATAATCCCTCAATATAAATATCTCTCACTTATTTAAA	0.282	0.27	
ACAGACGAAGGAGCCGCAAAGAACTTATTAAGGGATGAAAAATCCCTCAATATAAATATCTCTCACTTATTTAAA		0.521	
ACAGACGAAGGAGCCGCAAAGAACTTATTAAGGGATGAACAATCCCTCAATATAAATATCTCTCACTTATTTAAA		0.344	
ACAGACGAAGGAGCCGCAAAGAACTTATTAAGGGATGAATAAACCCTCAATATAAATATCTCTCACTTATTTAAA	0.224	0.265	
ACAGACGAAGGAGCCGCAAAGAACTTATTAAGGGATGAATAACCCCTCAATATAAATATCTCTCACTTATTTAAA	0.235		
ACAGACGAAGGAGCCGCAAAGAACTTATTAAGGGATGAATAATACCTCAATATAAATATCTCTCACTTATTTAAA	0.0995	0.165	
ACAGACGAAGGAGCCGCAAAGAACTTATTAAGGGATGAATAATCACTCAATATAAATATCTCTCACTTATTTAAA	0.102	0.152	
ACAGACGAAGGAGCCGCAAAGAACTTATTAAGGGATGAATAATCCATCAATATAAATATCTCTCACTTATTTAAA	0.15	0.209	
ACAGACGAAGGAGCCGCAAAGAACTTATTAAGGGATGAATAATCCCACAATATAAATATCTCTCACTTATTTAAA	0.207	0.292	
ACAGACGAAGGAGCCGCAAAGAACTTATTAAGGGATGAATAATCCCCCAATATAAATATCTCTCACTTATTTAAA		0.25	

Sequence	cleaved RNA product abundance [1]	cleaved RNA product abundance [2]	cleaved RNA product abundance [3]
ACAGACGAAGGAGCCGCAAAGAACTTATTAAGGGATGAATAATCCCTAAATATAAATATCTCTCACTTATTTAAA	0.258	0.454	
ACAGACGAAGGAGCCGCAAAGAACTTATTAAGGGATGAATAATCCCTCAAAATAAATATCTCTCACTTATTTAAA		0.208	
ACAGACGAAGGAGCCGCAAAGAACTTATTAAGGGATGAATAATCCCTCAACATAAATATCTCTCACTTATTTAAA		0.227	
ACAGACGAAGGAGCCGCAAAGAACTTATTAAGGGATGAATAATCCCTCAAGATAAATATCTCTCACTTATTTAAA	0.165	0.185	
ACAGACGAAGGAGCCGCAAAGAACTTATTAAGGGATGAATAATCCCTCAATATAAACATCTCTCACTTATTTAAA		0.348	
ACAGACGAAGGAGCCGCAAAGAACTTATTAAGGGATGAATAATCCCTCAATATAAATAACTCTCACTTATTTAAA	0.444	0.566	
ACAGACGAAGGAGCCGCAAAGAACTTATTAAGGGATGAATAATCCCTCAATATAAATATCTCTCACTTATTTAAA	0.448	0.509	0.575
ACAGACGAAGGAGCCGCAAAGAACTTATTAAGGGATGAATAATCCCTCAATATAAATATTTCTCACTTATTTAAA		0.307	
ACAGACGAAGGAGCCGCAAAGAACTTATTAAGGGATGAATAATCCCTCAATATATATATCTCTCACTTATTTAAA		0.454	
ACAGACGAAGGAGCCGCAAAGAACTTATTAAGGGATGAATAATCCCTCAGTATAAATATCTCTCACTTATTTAAA	0.128	0.309	
ACAGACGAAGGAGCCGCAAAGAACTTATTAAGGGATGAATAATCCCTCCATATAAATATCTCTCACTTATTTAAA		0.28	
ACAGACGAAGGAGCCGCAAAGAACTTATTAAGGGATGAATAATCCCTCGATATAAATATCTCTCACTTATTTAAA		0.269	
ACAGACGAAGGAGCCGCAAAGAACTTATTAAGGGATGAATAATCCCTCTATATAAATATCTCTCACTTATTTAAA		0.332	
ACAGACGAAGGAGCCGCAAAGAACTTATTAAGGGATGAATAATCCCTGAATATAAATATCTCTCACTTATTTAAA	0.264	0.213	
ACAGACGAAGGAGCCGCAAAGAACTTATTAAGGGATGAATAATCCCTTAATATAAATATCTCTCACTTATTTAAA		0.369	0.271
ACAGACGAAGGAGCCGCAAAGAACTTATTAAGGGATGAATAATCCGTCAATATAAATATCTCTCACTTATTTAAA		0.155	
ACAGACGAAGGAGCCGCAAAGAACTTATTAAGGGATGAATAATCCTTCAATATAAATATCTCTCACTTATTTAAA		0.342	
ACAGACGAAGGAGCCGCAAAGAACTTATTAAGGGATGAATAATCTCTCAATATAAATATCTCTCACTTATTTAAA		0.418	
ACAGACGAAGGAGCCGCAAAGAACTTATTAAGGGATGAATAATTCATCAATATAAATATCTCTCACTTATTTAAA		0.372	
ACAGACGAAGGAGCCGCAAAGAACTTATTAAGGGATGAATAATTCCTCAATATAAATATCTCTCACTTATTTAAA	0.315	0.32	
